According to article PMC3268024, “Role of Linkers between Zinc Fingers in Spacing Recognition by Plant TFIIIA-Type Zinc-Finger Proteins”:
Positions count from the first letter of the chain named.

T1: ZPT2-14ZF (UniProt O22086 41-117)
T1 sequence: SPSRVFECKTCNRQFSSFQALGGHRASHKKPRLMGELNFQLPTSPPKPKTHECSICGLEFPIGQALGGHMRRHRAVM

B1: AGT-10-ACT (dsDNA)
DNA 1: CTCGAGAAATTTCCCGGAATTCCAGTGGGAAATTTCACTGGCCGGAATTTCCCGGGGGGATCC
DNA 2: GGATCCCCCCGGGAAATTCCGGCCAGTGAAATTTCCCACTGGAATTCCGGGAAATTTCTCGAG
B2: ACT-10-AGT (dsDNA)
DNA 1: B1 DNA 1 with G25C, C38G
DNA 2: B1 DNA 2 with G26C, C39G
B3: AGT-5-AGT (dsDNA)
DNA 1: CTCGAGAAATTTCCCGGAATTCCAGTGATCCAGTGGCCGGAATTTCCCGGGGGGATCC
DNA 2: GGATCCCCCCGGGAAATTCCGGCCACTGGATCACTGGAATTCCGGGAAATTTCTCGAG
B4: AGT-5-ACT (dsDNA)
DNA 1: B3 DNA 1 with G33C
DNA 2: B3 DNA 2 with C26G

target: T1, ZPT2-14ZF; assay: EMSA; 25 mM HEPES-KOH pH 7.6, 40 mM KCl, 0.1% NP-40, 10 uM ZnCl2, 1 mg/mL BSA, 10% glycerol, 10 ug/mL poly(dI-dC), 1 mM DTT, 0.15 nM probe, 25 min at 20 C; conditions: protein: recombinant; tags: MBP fusion cleaved with TEV protease; untagged; label: 32P end

Binder | Kd [nM]
B1 | 10.4 ± 1.6
B2 | 11.6 ± 1.9
B3 | 9.1 ± 1.2
B4 | 21.7 ± 3.4
